Assay results taken from patent US20220074941A1, “HSP90 COMBINATION THERAPY” (Sloan-Kettering Institute for Cancer Research, priority 2011, published 2022).

Columns and labels:
[1] = test system: Hsp90 complexes in K562 cell extract; assay: Nano-LC-MS/MS of PU-beads pull-downs; type: binding; conditions: protein identified in PU-beads pull-down of K562 cell extract, QSTAR-Elite QTof MS
Summary of the method: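 Proteins were identified by data-dependent nano LC-MS/MS (QTof, ESI) and Mascot searching (p<0.05), then reported as spectral counts and coverage via Scaffold. Inputs were PU-bead versus control-bead pull-downs from lysate pre-cleared with control beads overnight at 4 °C, eluted by boiling in 2% SDS.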

[2] = test system: Hsp90 complexes in Mia-PaCa-2 cell extract; assay: Nano-LC-MS/MS of PU-beads pull-downs; type: binding, human; conditions: protein identified in PU-beads pull-down of Mia-PaCa-2 cell extract; QSTAR-Elite QTof MS
Summary of the method: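 They came from PU-bead pull-downs of pre-cleared lysates (control beads, overnight, 4 °C), eluted by boiling in 2% SDS, gel-separated and run by data-dependent nano-ESI QTof MS/MS.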

Molecule	Number of Assigned Spectra, K562 Prep 1 [1]	Number of Assigned Spectra, K562 Prep 2 [1]	Number of Assigned Spectra, Mia-Paca 2 [2]
CT45A5 (protein, UniProt P0DMU8 1-189, looked up) Cancer/testis antigen family …: MTDKTEKVAVDPETVFKRPRECDSPSYQKRQRMALLARKQGAGDSLIAGSAMSKEKKLMTGHAIPPSQLDSQIDDFTGFSKDGMMQKPGSNAPVGGNVTSSFSGDDLECRETASSPKSQREINADIKRKLVKELRCVGQKYEKIFEMLEGVQGPTAVRKRFFESIIKEAARCMRRDFVKHLKKKLKRMI	2	0	0
MOBKL3 (protein, UniProt Q96BX8 1-217, looked up) MOB kinase activator 3A: MSNPFLKQVFNKDKTFRPKRKFEPGTQRFELHKKAQASLNAGLDLRLAVQLPPGEDLNDWVAVHVVDFFNRVNLIYGTISDGCTEQSCPVMSGGPKYEYRWQDEHKFRKPTALSAPRYMDLLMDWIEAQINNEDLFPTNVGTPFPKNFLQTVRKILSRLFRVFVHVYIHHFDRIAQMGSEAHVNTCYKHFYYFVKEFGLIDTKELEPLKEMTARMCH	0	0	1
ASCC2 (protein, UniProt Q9H1I8 1-757, looked up) Activating signal …: MPALPLDQLQITHKDPKTGKLRTSPALHPEQKADRYFVLYKPPPKDNIPALVEEYLERATFVANDLDWLLALPHDKFWCQVIFDETLQKCLDSYLRYVPRKFDEGVASAPEVVDMQKRLHRSVFLTFLRMSTHKESKDHFISPSAFGEILYNNFLFDIPKILDLCVLFGKGNSPLLQKMIGNIFTQQPSYYSDLDETLPTILQVFSNILQHCGLQGDGANTTPQKLEERGRLTPSDMPLLELKDIVLYLCDTCTTLWAFLDIFPLACQTFQKHDFCYRLASFYEAAIPEMESAIKKRRLEDSKLLGDLWQRLSHSRKKLMEIFHIILNQICLLPILESSCDNIQGFIEEFLQIFSSLLQEKRFLRDYDALFPVAEDISLLQQASSVLDETRTAYILQAVESAWEGVDRRKATDAKDPSVIEEPNGEPNGVTVTAEAVSQASSHPENSEEEECMGAAAAVGPAMCGVELDSLISQVKDLLPDLGEGFILACLEYYHYDPEQVINNILEERLAPTLSQLDRNLDREMKPDPTPLLTSRHNVFQNDEFDVFSRDSVDLSRVHKGKSTRKEENTRSLLNDKRAVAAQRQRYEQYSVVVEEVPLQPGESLPYHSVYYEDEYDDTYDGNQVGANDADSDDELISRRPFTIPQVLRTKVPREGQEEDDDDEEDDADEEAPKPDHFVQDPAVLREKAEARRMAFLAKKGYRHDSSTAVAGSPRGHGQSRETTQERRKKEANKATRANHNRRTMADRKRSKGMIPS	0	0	1
MLF2 (protein, UniProt Q15773 1-248, looked up) Myeloid leukemia factor 2: MFRFMRDVEPEDPMFLMDPFAIHRQHMSRMLSGGFGYSPFLSITDGNMPGTRPASRRMQQAGAVSPFGMLGMSGGFMDMFGMMNDMIGNMEHMTAGGNCQTFSSSTVISYSNTGDGAPKVYQETSEMRSAPGGIRETRRTVRDSDSGLEQMSIGHHIRDRAHILQRSRNHRTGDQEERQDYINLDESEAAAFDDEWRRETSRFRQQRPLEFRRLESSGAGGRRAEGPPRLAIQGPEDSPSRQSRRYDW	2	0	1
O60613 (protein, UniProt O60613 1-165, looked up, full-length) MVAMAAGPSGCLVPAFGLRLLLATVLQAVSAFGAEFSSEACRELGFSSNLLCSSCDLLGQFNLLQLDPDCRGCCQEEAQFETKKLYAGAILEVCGUKLGRFPQVQAFVRSDKPKLFRGLQIKYVRGSDPVLKLLDDNGNIAEELSILKWNTDSVEEFLSEKLERI	0	0	2
